Assay results from IntAct's records for PubMed 25910212.

What was measured:
cof2_human CFL2 = cof2_human CFL2 (UniProt Q9Y281)
cap2_human CAP2 [1] = target: cap2_human CAP2 (UniProt P40123)
cap2_human CAP2 [2] = target: cap2_human CAP2 (UniProt P40123); remark: listed apart in the source
pnma1_human PNMA1 = pnma1_human PNMA1 (UniProt Q8ND90)
ldaf1_human LDAF1 = ldaf1_human LDAF1 (UniProt Q96B96)
tfp11_human TFIP11 = tfp11_human TFIP11 (UniProt Q9UBB9)
reep6_human REEP6 = reep6_human REEP6 (UniProt Q96HR9)
Sequence of reep6_human REEP6 (Q96HR9 whole entry): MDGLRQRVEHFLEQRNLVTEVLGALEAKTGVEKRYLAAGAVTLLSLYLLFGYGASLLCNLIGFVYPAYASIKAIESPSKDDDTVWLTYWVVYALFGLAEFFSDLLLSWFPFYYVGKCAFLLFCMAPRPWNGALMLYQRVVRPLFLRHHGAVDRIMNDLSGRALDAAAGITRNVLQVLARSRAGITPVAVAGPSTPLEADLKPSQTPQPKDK

shlb1_human SH3GLB1 = shlb1_human SH3GLB1 (UniProt Q9Y371)
Sequence of shlb1_human SH3GLB1 (Q9Y371 whole entry): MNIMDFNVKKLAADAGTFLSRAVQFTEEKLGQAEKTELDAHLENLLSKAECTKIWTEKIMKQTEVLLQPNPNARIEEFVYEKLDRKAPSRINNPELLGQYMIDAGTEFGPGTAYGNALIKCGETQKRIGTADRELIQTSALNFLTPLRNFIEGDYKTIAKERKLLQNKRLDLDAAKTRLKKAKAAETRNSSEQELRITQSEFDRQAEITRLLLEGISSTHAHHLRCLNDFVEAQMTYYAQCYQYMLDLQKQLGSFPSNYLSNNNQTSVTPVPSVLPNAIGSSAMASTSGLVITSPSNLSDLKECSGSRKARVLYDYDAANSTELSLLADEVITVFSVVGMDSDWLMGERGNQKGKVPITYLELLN

praf1_human RABAC1 = praf1_human RABAC1 (UniProt Q9UI14)
Sequence of praf1_human RABAC1 (Q9UI14 whole entry): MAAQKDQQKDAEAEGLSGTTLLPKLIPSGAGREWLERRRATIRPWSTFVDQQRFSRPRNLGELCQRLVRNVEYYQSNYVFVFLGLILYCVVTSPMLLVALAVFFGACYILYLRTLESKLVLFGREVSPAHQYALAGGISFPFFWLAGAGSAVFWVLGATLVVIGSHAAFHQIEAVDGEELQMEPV

dtx2_human DTX2 = dtx2_human DTX2 (UniProt Q86UW9)
gsto2_human GSTO2 = gsto2_human GSTO2 (UniProt Q9H4Y5)
Sequence of gsto2_human GSTO2 (Q9H4Y5 whole entry): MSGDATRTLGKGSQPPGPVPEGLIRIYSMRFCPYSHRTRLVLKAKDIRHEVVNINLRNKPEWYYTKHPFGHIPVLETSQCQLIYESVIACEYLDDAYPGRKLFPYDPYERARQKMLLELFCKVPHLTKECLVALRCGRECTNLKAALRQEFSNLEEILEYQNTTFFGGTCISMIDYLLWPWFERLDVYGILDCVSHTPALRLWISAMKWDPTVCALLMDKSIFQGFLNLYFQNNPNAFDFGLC

SYNE4, Q8N205-2 = target: T1, SYNE4, Q8N205-2
T1 sequence: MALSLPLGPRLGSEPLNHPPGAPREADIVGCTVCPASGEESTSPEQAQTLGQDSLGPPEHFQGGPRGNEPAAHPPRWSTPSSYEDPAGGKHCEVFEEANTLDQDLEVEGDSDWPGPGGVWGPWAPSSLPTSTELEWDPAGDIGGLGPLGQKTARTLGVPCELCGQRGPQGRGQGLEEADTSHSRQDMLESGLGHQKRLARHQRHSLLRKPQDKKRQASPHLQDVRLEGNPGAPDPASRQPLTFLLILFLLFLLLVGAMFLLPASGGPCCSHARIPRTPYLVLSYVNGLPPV

tmm79_human TMEM79 = target: T2, tmm79_human TMEM79 (UniProt Q9BSE2)
T2 sequence: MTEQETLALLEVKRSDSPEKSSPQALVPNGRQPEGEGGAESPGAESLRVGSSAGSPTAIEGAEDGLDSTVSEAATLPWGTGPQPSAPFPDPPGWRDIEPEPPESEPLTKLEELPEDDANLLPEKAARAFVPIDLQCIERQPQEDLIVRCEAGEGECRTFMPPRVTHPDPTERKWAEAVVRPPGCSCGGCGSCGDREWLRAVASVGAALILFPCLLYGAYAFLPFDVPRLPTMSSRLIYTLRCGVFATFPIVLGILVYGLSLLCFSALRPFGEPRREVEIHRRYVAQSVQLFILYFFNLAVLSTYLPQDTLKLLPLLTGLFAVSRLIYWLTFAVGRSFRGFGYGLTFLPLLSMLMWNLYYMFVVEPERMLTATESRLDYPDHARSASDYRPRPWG

smim3_human SMIM3 [3] = target: T3, smim3_human SMIM3 (UniProt Q9BZL3)
T3 sequence: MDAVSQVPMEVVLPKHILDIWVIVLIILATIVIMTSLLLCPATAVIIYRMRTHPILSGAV

smim3_human SMIM3 [4] = target: T3, smim3_human SMIM3; remark: listed apart in the source
lzts2_human LZTS2 = lzts2_human LZTS2 (UniProt Q9BRK4)
Sequence of lzts2_human LZTS2 (Q9BRK4 whole entry): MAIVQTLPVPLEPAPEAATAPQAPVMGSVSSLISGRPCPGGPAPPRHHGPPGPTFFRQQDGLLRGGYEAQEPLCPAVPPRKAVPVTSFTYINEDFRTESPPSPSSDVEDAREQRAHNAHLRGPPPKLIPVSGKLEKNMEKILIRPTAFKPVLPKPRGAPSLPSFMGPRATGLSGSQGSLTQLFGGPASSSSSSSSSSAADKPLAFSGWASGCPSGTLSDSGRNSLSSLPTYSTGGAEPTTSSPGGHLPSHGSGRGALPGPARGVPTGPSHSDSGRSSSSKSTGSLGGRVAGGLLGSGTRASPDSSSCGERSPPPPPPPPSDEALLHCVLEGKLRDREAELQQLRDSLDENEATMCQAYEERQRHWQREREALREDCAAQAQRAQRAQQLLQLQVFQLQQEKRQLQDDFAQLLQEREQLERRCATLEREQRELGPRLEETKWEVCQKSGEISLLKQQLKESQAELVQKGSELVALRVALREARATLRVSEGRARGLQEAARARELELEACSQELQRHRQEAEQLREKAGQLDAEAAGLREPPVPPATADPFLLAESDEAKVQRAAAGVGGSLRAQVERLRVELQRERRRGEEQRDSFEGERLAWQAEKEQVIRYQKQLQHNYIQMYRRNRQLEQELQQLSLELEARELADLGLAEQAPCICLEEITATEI

trip6_human TRIP6 = trip6_human TRIP6 (UniProt Q15654)
Sequence of trip6_human TRIP6 (Q15654 whole entry): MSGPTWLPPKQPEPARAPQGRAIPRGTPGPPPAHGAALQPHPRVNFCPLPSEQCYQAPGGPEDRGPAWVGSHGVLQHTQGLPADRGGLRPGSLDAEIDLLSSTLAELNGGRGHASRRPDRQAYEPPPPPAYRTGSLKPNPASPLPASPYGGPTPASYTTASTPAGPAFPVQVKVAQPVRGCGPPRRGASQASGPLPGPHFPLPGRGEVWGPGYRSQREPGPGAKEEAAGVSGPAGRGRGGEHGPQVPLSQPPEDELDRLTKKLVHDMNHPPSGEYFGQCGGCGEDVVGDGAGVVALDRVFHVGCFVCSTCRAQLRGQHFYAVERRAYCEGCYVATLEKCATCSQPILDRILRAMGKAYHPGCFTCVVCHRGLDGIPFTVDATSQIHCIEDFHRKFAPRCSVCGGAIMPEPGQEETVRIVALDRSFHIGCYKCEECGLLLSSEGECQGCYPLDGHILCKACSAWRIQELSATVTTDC

mdfi_human MDFI = mdfi_human MDFI (UniProt Q99750)
Sequence of mdfi_human MDFI (Q99750 whole entry): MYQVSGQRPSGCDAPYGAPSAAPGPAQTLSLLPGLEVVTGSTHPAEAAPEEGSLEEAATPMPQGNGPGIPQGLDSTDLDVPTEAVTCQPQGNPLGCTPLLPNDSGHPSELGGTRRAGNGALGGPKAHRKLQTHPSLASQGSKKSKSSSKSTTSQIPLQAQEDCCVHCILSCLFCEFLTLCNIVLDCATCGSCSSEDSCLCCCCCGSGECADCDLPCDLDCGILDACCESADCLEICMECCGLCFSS

kra32_human KRTAP3-2 = kra32_human KRTAP3-2 (UniProt Q9BYR7)
Sequence of kra32_human KRTAP3-2 (Q9BYR7 whole entry): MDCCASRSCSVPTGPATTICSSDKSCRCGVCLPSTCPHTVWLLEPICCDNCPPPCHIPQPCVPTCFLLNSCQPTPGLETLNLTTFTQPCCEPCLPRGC

Measured: effect of a mutation on the interaction

Sequence of CMTM5, Q96DZ9-2 (Q96DZ9 other isoform, or with tags, fused parts or gaps): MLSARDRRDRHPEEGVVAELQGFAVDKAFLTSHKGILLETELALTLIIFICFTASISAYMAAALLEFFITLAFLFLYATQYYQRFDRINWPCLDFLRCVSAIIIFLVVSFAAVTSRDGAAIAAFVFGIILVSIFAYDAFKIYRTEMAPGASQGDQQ
Sequence of AGTRAP, Q6RW13-2 (Q6RW13 other isoform, or with tags, fused parts or gaps): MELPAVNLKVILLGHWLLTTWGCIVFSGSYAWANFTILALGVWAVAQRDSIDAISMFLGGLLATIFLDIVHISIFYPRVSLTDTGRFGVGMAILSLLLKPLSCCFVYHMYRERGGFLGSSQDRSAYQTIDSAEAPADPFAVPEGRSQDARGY
Sequence of UBQLN1, Q9UMX0-2 (Q9UMX0 other isoform, or with tags, fused parts or gaps): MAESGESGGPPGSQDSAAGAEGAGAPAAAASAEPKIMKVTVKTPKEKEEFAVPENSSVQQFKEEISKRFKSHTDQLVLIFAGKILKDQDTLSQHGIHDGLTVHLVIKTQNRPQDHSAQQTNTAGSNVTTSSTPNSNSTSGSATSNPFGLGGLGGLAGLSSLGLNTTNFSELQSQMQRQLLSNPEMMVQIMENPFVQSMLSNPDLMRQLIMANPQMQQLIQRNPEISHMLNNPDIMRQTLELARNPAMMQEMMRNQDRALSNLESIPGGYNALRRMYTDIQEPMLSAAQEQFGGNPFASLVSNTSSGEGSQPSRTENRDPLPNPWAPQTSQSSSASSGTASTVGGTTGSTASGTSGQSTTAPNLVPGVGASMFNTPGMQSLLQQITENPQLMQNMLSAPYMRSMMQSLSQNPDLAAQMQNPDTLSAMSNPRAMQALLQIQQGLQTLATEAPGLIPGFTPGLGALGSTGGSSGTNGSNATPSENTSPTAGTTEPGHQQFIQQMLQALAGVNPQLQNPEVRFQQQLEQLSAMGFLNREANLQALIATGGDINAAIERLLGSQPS
Sequence of TMEM239, Q8WW34-2 (Q8WW34 44-195): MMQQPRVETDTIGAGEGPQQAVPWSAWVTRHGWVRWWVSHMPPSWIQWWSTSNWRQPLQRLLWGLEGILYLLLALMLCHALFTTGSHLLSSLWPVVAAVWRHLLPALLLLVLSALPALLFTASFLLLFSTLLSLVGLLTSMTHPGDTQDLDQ
Sequence of tfp11_human TFIP11 (Q9UBB9 whole entry): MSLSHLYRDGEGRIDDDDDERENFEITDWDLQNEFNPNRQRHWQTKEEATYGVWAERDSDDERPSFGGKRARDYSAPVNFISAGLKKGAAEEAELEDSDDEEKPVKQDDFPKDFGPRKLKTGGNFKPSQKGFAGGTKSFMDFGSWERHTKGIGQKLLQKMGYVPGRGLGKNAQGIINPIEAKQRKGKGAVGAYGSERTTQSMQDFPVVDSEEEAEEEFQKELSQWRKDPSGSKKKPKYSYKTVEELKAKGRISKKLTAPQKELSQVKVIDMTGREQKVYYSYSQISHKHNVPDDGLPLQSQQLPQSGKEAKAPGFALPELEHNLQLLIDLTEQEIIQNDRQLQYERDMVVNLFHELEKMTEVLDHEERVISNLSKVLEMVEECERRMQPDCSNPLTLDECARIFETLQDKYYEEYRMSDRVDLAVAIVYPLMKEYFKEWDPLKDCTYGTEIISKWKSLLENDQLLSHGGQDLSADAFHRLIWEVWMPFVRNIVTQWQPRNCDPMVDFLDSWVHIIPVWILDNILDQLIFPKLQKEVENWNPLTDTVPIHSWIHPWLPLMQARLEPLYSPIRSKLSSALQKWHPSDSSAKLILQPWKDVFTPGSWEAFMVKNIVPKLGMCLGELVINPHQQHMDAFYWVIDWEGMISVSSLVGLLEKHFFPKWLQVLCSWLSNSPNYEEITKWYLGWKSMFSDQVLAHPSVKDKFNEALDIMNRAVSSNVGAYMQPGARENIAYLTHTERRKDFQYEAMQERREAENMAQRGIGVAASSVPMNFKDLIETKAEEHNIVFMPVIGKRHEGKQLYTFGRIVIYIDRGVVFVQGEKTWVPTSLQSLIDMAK
Sequence of pnma1_human PNMA1 (Q8ND90 whole entry): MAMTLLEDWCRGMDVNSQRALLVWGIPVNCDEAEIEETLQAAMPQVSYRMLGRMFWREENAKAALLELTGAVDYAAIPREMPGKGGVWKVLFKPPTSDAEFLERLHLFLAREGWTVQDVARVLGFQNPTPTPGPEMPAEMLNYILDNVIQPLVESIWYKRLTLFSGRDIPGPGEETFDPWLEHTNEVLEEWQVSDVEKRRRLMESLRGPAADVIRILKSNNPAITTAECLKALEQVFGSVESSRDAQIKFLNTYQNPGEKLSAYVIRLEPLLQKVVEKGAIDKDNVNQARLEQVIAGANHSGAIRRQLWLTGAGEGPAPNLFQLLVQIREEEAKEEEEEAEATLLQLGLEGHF
Sequence of ldaf1_human LDAF1 (Q96B96 whole entry): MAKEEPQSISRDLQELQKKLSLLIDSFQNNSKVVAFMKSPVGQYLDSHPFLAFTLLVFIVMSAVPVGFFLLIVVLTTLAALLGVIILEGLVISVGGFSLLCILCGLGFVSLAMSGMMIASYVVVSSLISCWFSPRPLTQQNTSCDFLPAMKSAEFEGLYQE

Actin, cytoplasmic 2 (Homo sapiens) (from UniProt P63261) T89I
causing an interaction: cap2_human CAP2 [2]
with no effect: cof2_human CFL2 | cap2_human CAP2 [1]

Aprataxin (Homo sapiens), Q7Z2E3-7 A198V
with no effect: pnma1_human PNMA1

Atypical kinase COQ8A, mitochondrial (Homo sapiens), Q8NI60 H80Y
with no effect: CMTM5, Q96DZ9-2 | ldaf1_human LDAF1 | tfp11_human TFIP11 | reep6_human REEP6 | shlb1_human SH3GLB1 | praf1_human RABAC1 | dtx2_human DTX2 | AGTRAP, Q6RW13-2 | TMEM239, Q8WW34-2

Atypical kinase COQ8A, mitochondrial (Homo sapiens), Q8NI60 G272V
disrupting interaction strength: ldaf1_human LDAF1 | tfp11_human TFIP11 | reep6_human REEP6 | praf1_human RABAC1 | TMEM239, Q8WW34-2
with no effect: CMTM5, Q96DZ9-2 | shlb1_human SH3GLB1 | dtx2_human DTX2 | AGTRAP, Q6RW13-2

Transcription factor AP-2-alpha (Homo sapiens), P05549-5 R248W
with no effect: gsto2_human GSTO2

Atypical kinase COQ8A, mitochondrial (Homo sapiens), Q8NI60 H85Q
with no effect: CMTM5, Q96DZ9-2 | ldaf1_human LDAF1 | tfp11_human TFIP11 | reep6_human REEP6 | shlb1_human SH3GLB1 | praf1_human RABAC1 | dtx2_human DTX2 | AGTRAP, Q6RW13-2 | TMEM239, Q8WW34-2

Atypical kinase COQ8A, mitochondrial (Homo sapiens), Q8NI60 R213W
disrupting interaction strength: CMTM5, Q96DZ9-2 | ldaf1_human LDAF1 | tfp11_human TFIP11 | reep6_human REEP6 | shlb1_human SH3GLB1 | praf1_human RABAC1 | dtx2_human DTX2 | AGTRAP, Q6RW13-2 | TMEM239, Q8WW34-2

Actin, cytoplasmic 2 (Homo sapiens) (from UniProt P63261) I122V
disrupting interaction strength: cof2_human CFL2 | cap2_human CAP2 [1]

Surfactant protein C (Homo sapiens) (from UniProt P11686) P30L
causing an interaction: smim3_human SMIM3 [4]
with no effect: SYNE4, Q8N205-2 | tmm79_human TMEM79 | smim3_human SMIM3 [3]

Transcription factor AP-2-alpha (Homo sapiens), P05549-5 R249G
with no effect: gsto2_human GSTO2

Cytosolic 5'-nucleotidase 3A (Homo sapiens) (from UniProt Q9H0P0) G207R
disrupting interaction strength: UBQLN1, Q9UMX0-2

Cytosolic 5'-nucleotidase 3A (Homo sapiens) (from UniProt Q9H0P0) D137V
with no effect: UBQLN1, Q9UMX0-2

Atypical kinase COQ8A, mitochondrial (Homo sapiens), Q8NI60 E551K
with no effect: CMTM5, Q96DZ9-2 | AGTRAP, Q6RW13-2
disrupting interaction strength: ldaf1_human LDAF1 | tfp11_human TFIP11 | reep6_human REEP6 | shlb1_human SH3GLB1 | praf1_human RABAC1 | dtx2_human DTX2 | TMEM239, Q8WW34-2

Erythroid transcription factor (Homo sapiens), P15976-2 G208R
with no effect: lzts2_human LZTS2 | trip6_human TRIP6 | mdfi_human MDFI | kra32_human KRTAP3-2

Cytosolic 5'-nucleotidase 3A (Homo sapiens) (from UniProt Q9H0P0) F36L
with no effect: UBQLN1, Q9UMX0-2

Erythroid transcription factor (Homo sapiens), P15976-2 D218G
with no effect: lzts2_human LZTS2 | trip6_human TRIP6 | mdfi_human MDFI | kra32_human KRTAP3-2

Erythroid transcription factor (Homo sapiens), P15976-2 V205M
disrupting interaction strength: lzts2_human LZTS2
with no effect: trip6_human TRIP6 | mdfi_human MDFI | kra32_human KRTAP3-2

Aprataxin (Homo sapiens), Q7Z2E3-7 H228R
disrupting interaction strength: pnma1_human PNMA1

Transcription factor AP-2-alpha (Homo sapiens), P05549-5 G256E
with no effect: gsto2_human GSTO2

Cytosolic 5'-nucleotidase 3A (Homo sapiens) (from UniProt Q9H0P0) G280R
with no effect: UBQLN1, Q9UMX0-2

Cytosolic 5'-nucleotidase 3A (Homo sapiens) (from UniProt Q9H0P0) C113R
with no effect: UBQLN1, Q9UMX0-2

Surfactant protein C (Homo sapiens) (from UniProt P11686) H64P
causing an interaction: smim3_human SMIM3 [4]
with no effect: SYNE4, Q8N205-2 | tmm79_human TMEM79 | smim3_human SMIM3 [3]

Aprataxin (Homo sapiens), Q7Z2E3-7 V263G
disrupting interaction strength: pnma1_human PNMA1

Atypical kinase COQ8A, mitochondrial (Homo sapiens), Q8NI60 Y514C
with no effect: CMTM5, Q96DZ9-2 | ldaf1_human LDAF1 | tfp11_human TFIP11 | reep6_human REEP6 | shlb1_human SH3GLB1 | praf1_human RABAC1 | dtx2_human DTX2 | AGTRAP, Q6RW13-2 | TMEM239, Q8WW34-2
